Measured values reported in patent publication US20260125454A1 (SHANGHAI JUNSHI BIOSCIENCES, published 2026).

Molecular target: T1, Biotin-huCGRPaSA (human, not fully specified; biotin (position not given))
T1 construct: exact construct ('aSA') not explained; also called Biotin CGRPaSA; full-length (1-37) CGRP
T1 peptide: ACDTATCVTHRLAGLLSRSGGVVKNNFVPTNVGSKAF
Experiment: ELISA, supernatant; relative to chimeric C245
Procedure: Biotin CGRPaSA was diluted with PBS (Hyclone) to 1.0 μg/mL, and the dilution was added to a microplate at 100 μL/well. The plate was let stand in an incubator at 37° C. and coated for 90 min and then washed, and 2% BSA was added to the plate at 200 μL/well. The plate was incubated in an incubator at 37° C. for 90 min and then washed. The humanized antibodies in Table 8 and the reference antibody (chimeric antibody C245) were diluted to 1000 ng/mL with a diluent (2% BSA) with a dilution factor of not more than 10. Then, the chimeric antibodies and the reference antibody were serially 2.5-fold diluted on a sample dilution plate. All the chimeric antibody solutions and the reference antibody solution were added into plates at 100 μL/well, and the plates were incubated in a thermostat incubator at 37° C. for 60 min and washed. An HRP-conjugated goat anti-human antibody IgG (manufacturer: Sigma, Cat. No. A0170; Fc specificity) was diluted 5000-fold with 2% BSA and added into the plates at 100 μL/well, and the plates were incubated in the thermostat incubator at 37° C. for 60 min and washed. Chromogenic reagent TMB was carefully added at 100 μL/well to avoid bubbles, and the system was incubated at 37° C. for 15 min away from light for chromogenic reaction. Finally, a 2 M hydrochloric acid solution was added at 100 μL/well to stop the reaction while avoiding bubbles, and the plates were read on a microplate reader within 10 min (wavelength: 450/620 nm).

B1: hu219 (antibody, V domains shown)
VH: QVQLVQSGAEVKKPGASVKVSCKASGYTFTDYNMHWVRQAPGQGLEWMGYIYPYNGHTVYNQKFRNRVTLTVDTSSSTAYMELRSLRSDDTAVYYCAREGLGGYWGQGTLVTVSS
VL: DIVLTQSPDSLAVSLGERATINCKASQNIDYDGYTYLNWYQQKPGQPPKVLIYSIFNLESGVPDRFSGSGSGTDFTLTISSLQAEDVAVYYCQQSNEVPYTFGQGTKLEIK
notes: 3H10 HC-2/3E5 LC-1
Relative binding activity, %: 78%

B2: hu115 (antibody, V domains shown)
VH: QVQLVQSGAEVKKPGASVKVSCKASGYTFTDYNMHWVRQAPGQGLEWMGNIYPYNGGTVYNQKFNNRVTLTVDTSSSTAYMELSRLRSDDTAVYYCAREGLGGYWGQGTLVTVSS
VL: DIVLTQSPDSLAVSLGERATINCKASQNIDYDGYTYLNWYQQKPGQPPKVLIYSIFNLESGVPDRFSGSGSGTDFTLTISSLQAEDVAVYYCQQSNEVPYTFGQGTKLEIK
notes: 2B8 HC1-1/3E5 LC-1
Relative binding activity, %: 98%

B3: hu116 (antibody, V domains shown)
VH: QVQLVQSGAEVKKPGASVKVSCKASGYTFTDYNMHWVRQAPGQGLEWMGNIYPYNGGTVYNQKFNNRVTLTVDTSSSTAYMELSRLRSDDTAVYYCAREGLGGYWGQGTLVTVSS
VL: DIVLTQSPDSLAVSLGERATINCKASQNIDYGGYSYMNWYQQKPGQPPKVLIYSVFNLESGVPDRFSGSGSGTDFTLTISSLQAEDVAVYYCQQSNEAPYTFGQGTKLEIK
notes: 2B8 HC1-1/3H10 LC2-1
Relative binding activity, %: 88%

B4: hu102 (antibody, V domains shown)
VH: QVQLVQSGAEVKKPGASVKVSCKASGYTFTDYNMHWVRQAPGQRLEWMGYVYPYNGGSAYNQKFKSRVTLTVDTSSSTAYMELSSLRSEDTAVYYCAREGLGGYWGQGTLVTVSS
VL: DIVLTQSPDSLAVSLGERATINCKASQNIDYDGYTYLNWYQQKPGQPPKVLIYSIFNLESGVPDRFSGSGSGTDFTLTISSLQAEDVAVYYCQQSNEVPYTFGQGTKLEIK
notes: 2A2 HC-1/3E5 LC-1
Relative binding activity, %: 94%

B5: hu203 (antibody, V domains shown)
VH: QVQLVQSGAEVKKPGASVKVSCKASGYTFTDYNMHWVRQAPGQGLEWMGYIYPYNGHTVYNQKFRNRVTMTVDTSSSTAYMELRSLRSDDTAVYYCAKEGLGGYWGQGTLVTVSS
VL: DIVLTQSPDSLAVSLGERATINCKASQNIDFDGYAYMNWYQHKPGQPPKVLIYSVFNLESGVPDRFSGSGSGTDFTLTISSLQAEDVAVYYCQQSHEVPYTFGQGTKLEIK
notes: 3H10 HC-1/1F5 LC1-4
Relative binding activity, %: 33%

B6: hu138 (antibody, V domains shown)
VH: QVQLVQSGAEVKKPGASVKVSCKASGYTFTDYNMHWVRQAPGQGLEWMGNIYPYNAGTVYNQKFNNRVTLTVDTSSSTAYMELSRLRSDDTAVYYCAREGLGGYWGQGTLVTVSS
VL: DIVLTQSPDSLAVSLGERATINCKASQNIDFDGYAYMNWYQHKPGQPPKVLIYSVFNLESGVPDRFSGSGSGTDFTLTISSLQAEDVAVYYCQQSHEVPYTFGQGTKLEIK
notes: 2B8 HC1-3/1F5 LC1-4
Relative binding activity, %: 102%

B7: hu11 (antibody, V domains shown)
VH: QVQLVQSGAEVKKPGASVKVSCKASGYTFTDYNMHWVRQAPGQGLEWMGYIFPYNGVAVYNRKFRSRVTLTIDTSSSTAYMELRSLRSDDTAVYYCAREGLGGYWGQGTLVTVSS
VL: DIVLTQSPDSLAVSLGERATINCKASQNIDYDGYTYLNWYQQKPGQPPKVLIYSIFNLESGVPDRFSGSGSGTDFTLTISSLQAEDVAVYYCQQSNEVPYTFGQGTKLEIK
notes: 1B2 HC-1/3E5 LC-1
Relative binding activity, %: 49%

B8: hu207 (antibody, V domains shown)
VH: QVQLVQSGAEVKKPGASVKVSCKASGYTFTDYNMHWVRQAPGQGLEWMGYIYPYNGHTVYNQKFRNRVTMTVDTSSSTAYMELRSLRSDDTAVYYCAKEGLGGYWGQGTLVTVSS
VL: DIVLTQSPDSLAVSLGERATINCKASQNIDYGGYSYMNWYQQKPGQPPKVLIYSVFNLESGVPDRFSGSGSGTDFTLTISSLQAEDVAVYYCQQSNEAPYTFGQGTKLEIK
notes: 3H10 HC-1/3H10 LC2-1
Relative binding activity, %: 56%

B9: hu141 (antibody, V domains shown)
VH: QVQLVQSGAEVKKPGASVKVSCKASGYTFTDYNMHWVRQAPGQGLEWMGNIYPYNAGTVYNQKFNNRVTLTVDTSSSTAYMELSRLRSDDTAVYYCAREGLGGYWGQGTLVTVSS
VL: DIVLTQSPDSLAVSLGERATINCKASQNIDYDGYTYLNWYQQKPGQPPKVLIYSIFNLESGVPDRFSGSGSGTDFTLTISSLQAEDVAVYYCQQSNEVPYTFGQGTKLEIK
notes: 2B8 HC1-3/3E5 LC-1
Relative binding activity, %: 86%

B10: hu112 (antibody, V domains shown)
VH: QVQLVQSGAEVKKPGASVKVSCKASGYTFTDYNMHWVRQAPGQGLEWMGNIYPYNGGTVYNQKFNNRVTLTVDTSSSTAYMELSRLRSDDTAVYYCAREGLGGYWGQGTLVTVSS
VL: DIVLTQSPDSLAVSLGERATINCKASQNIDFDGYAYMNWYQHKPGQPPKVLIYSVFNLESGVPDRFSGSGSGTDFTLTISSLQAEDVAVYYCQQSHEVPYTFGQGTKLEIK
notes: 2B8 HC1-1/1F5 LC1-4
Relative binding activity, %: 14%

B11: hu60 (antibody, V domains shown)
VH: QVQLVQSGAEVKKPGASVKVSCKASGYTFTDFNMHWVRQAPGQGLEWMGYIYPYNGDVVYNQNFTNRVTLTVDTSSSTAYMELRSLRSDDTAVYYCAREGLGGYWGQGTLVTVSS
VL: DIVLTQSPDSLAVSLGERATINCKASQNIDFDGYAYMNWYQHKPGQPPKVLIYSVFNLESGVPDRFSGSGSGTDFTLTISSLQAEDVAVYYCQQSHEVPYTFGQGTKLEIK
notes: 1F5 HC-3/1F5 LC1-4
Relative binding activity, %: 11%

B12: hu12 (antibody, V domains shown)
VH: QVQLVQSGAEVKKPGASVKVSCKASGYTFTDYNMHWVRQAPGQGLEWMGYIFPYNGVAVYNRKFRSRVTLTIDTSSSTAYMELRSLRSDDTAVYYCAREGLGGYWGQGTLVTVSS
VL: DIVLTQSPDSLAVSLGERATINCKASQNIDYGGYSYMNWYQQKPGQPPKVLIYSVFNLESGVPDRFSGSGSGTDFTLTISSLQAEDVAVYYCQQSNEAPYTFGQGTKLEIK
notes: 1B2 HC-1/3H10 LC2-1
Relative binding activity, %: 73%

B13: hu216 (antibody, V domains shown)
VH: QVQLVQSGAEVKKPGASVKVSCKASGYTFTDYNMHWVRQAPGQGLEWMGYIYPYNGHTVYNQKFRNRVTLTVDTSSSTAYMELRSLRSDDTAVYYCAREGLGGYWGQGTLVTVSS
VL: DIVLTQSPDSLAVSLGERATINCKASQNIDFDGYAYMNWYQHKPGQPPKVLIYSVFNLESGVPDRFSGSGSGTDFTLTISSLQAEDVAVYYCQQSHEVPYTFGQGTKLEIK
notes: 3H10 HC-2/1F5 LC1-4
Relative binding activity, %: 58%

B14: hu125 (antibody, V domains shown)
VH: QVQLVQSGAEVKKPGASVKVSCKASGYTFTDYNMHWVRQAPGQGLEWMGNIYPYNGGTVYNQKFNNRVTLTVDTSSSTAYMELRSLRSDDTAVYYCAREGLGGYWGQGTLVTVSS
VL: DIVLTQSPDSLAVSLGERATINCKASQNIDFDGYAYMNWYQHKPGQPPKVLIYSVFNLESGVPDRFSGSGSGTDFTLTISSLQAEDVAVYYCQQSHEVPYTFGQGTKLEIK
notes: 2B8 HC1-2/1F5 LC1-4
Relative binding activity, %: 34%

B15: hu24 (antibody, V domains shown)
VH: QVQLVQSGAEVKKPGASVKVSCKASGYTFTDYNMHWVRQAPGQRLEWMGYIFPYNGVAVYNRKFRSRVTLTVDTSSSTAYMELSSLRSEDTAVYYCAREGLGGYWGQGTLVTVSS
VL: DIVLTQSPDSLAVSLGERATINCKASQNIDYDGYTYLNWYQQKPGQPPKVLIYSIFNLESGVPDRFSGSGSGTDFTLTISSLQAEDVAVYYCQQSNEVPYTFGQGTKLEIK
notes: 1B2 HC-2/3E5 LC-1
Relative binding activity, %: 73%

B16: hu206 (antibody, V domains shown)
VH: QVQLVQSGAEVKKPGASVKVSCKASGYTFTDYNMHWVRQAPGQGLEWMGYIYPYNGHTVYNQKFRNRVTMTVDTSSSTAYMELRSLRSDDTAVYYCAKEGLGGYWGQGTLVTVSS
VL: DIVLTQSPDSLAVSLGERATINCKASQNIDYDGYTYLNWYQQKPGQPPKVLIYSIFNLESGVPDRFSGSGSGTDFTLTISSLQAEDVAVYYCQQSNEVPYTFGQGTKLEIK
notes: 3H10 HC-1/3E5 LC-1
Relative binding activity, %: 70%

B17: hu8 (antibody, V domains shown)
VH: QVQLVQSGAEVKKPGASVKVSCKASGYTFTDYNMHWVRQAPGQGLEWMGYIFPYNGVAVYNRKFRSRVTLTIDTSSSTAYMELRSLRSDDTAVYYCAREGLGGYWGQGTLVTVSS
VL: DIVLTQSPDSLAVSLGERATINCKASQNIDFDGYAYMNWYQHKPGQPPKVLIYSVFNLESGVPDRFSGSGSGTDFTLTISSLQAEDVAVYYCQQSHEVPYTFGQGTKLEIK
notes: 1B2 HC-1/1F5 LC1-4
Relative binding activity, %: 72%

B18: hu142 (antibody, V domains shown)
VH: QVQLVQSGAEVKKPGASVKVSCKASGYTFTDYNMHWVRQAPGQGLEWMGNIYPYNAGTVYNQKFNNRVTLTVDTSSSTAYMELSRLRSDDTAVYYCAREGLGGYWGQGTLVTVSS
VL: DIVLTQSPDSLAVSLGERATINCKASQNIDYGGYSYMNWYQQKPGQPPKVLIYSVFNLESGVPDRFSGSGSGTDFTLTISSLQAEDVAVYYCQQSNEAPYTFGQGTKLEIK
notes: 2B8 HC1-3/3H10 LC2-1
Relative binding activity, %: 84%

B19: hu180 (antibody, V domains shown)
VH: QVQLVQSGAEVKKPGASVKVSCKASGYTFTDYNMHWVRQAPGQGLEWMGYISPYNGGTAYNQKFKFRVTLTVDTSSSTAYMELSRLRSDDTVVYYCAREGLGGYWGQGTLVTVSS
VL: DIVLTQSPDSLAVSLGERATINCKASQNIDYDGYTYLNWYQQKPGQPPKVLIYSIFNLESGVPDRFSGSGSGTDFTLTISSLQAEDVAVYYCQQSNEVPYTFGQGTKLEIK
notes: 3E5 HC-3/3E5 LC-1
Relative binding activity, %: 87%
